According to paper PMC3037030:

Substrate: CCCCC/C=C\C/C=C\C/C=C\C/C=C\CCCC(=O)O
Assay: radiometric acyl-CoA synthetase assay
Assay type: biochemical, Rattus norvegicus
Details: ATP, Mg2+

B1: Acsl3 (Rattus norvegicus) (protein)
chain: MNNHVSSTPSTMKLKQTIHPILLYFIHFIISLYTILTYIPFYFLCESKQEKPNHIKAKPVSSKPDSAYRSVNSMDGLASVLYPGCDTLDKVFMYAKNKFKDKRLLGTREILNEEDEIQPNGKVFKKVILGHYNWLSYEDVFIRALDFGNGLQMLGQKPKANIAIFCETRAEWMIAAQACFMYNFQLVTLYATLGGPAIVHGLNETEVTNIITSKELLQTKLKDIVSLVPRLRHIITVDGKPPTWSEFPKGVIVHTMAAVQALGVKADVDKKAHSKPLPSDIAVIMYTSGSTGIPKGVMISHSNIIASITGMARRIPRLGEEDVYIGYLPLAHVLELSAELVCLSHGCRIGYSSPQTLADQSSKIKKGSKGDTSVLKPTLMAAVPEIMDRIYKNVMNKVNEMSAFQRNLFILAYNYKMEQISKGCSTPLCDRFVFRNVRRLLGGNIRVLLCGGAPLSATTQRFMNICFCCPVGQGYGLTESTGAGTITEVWDYNTGRVGAPLVCCEIKLKNWEEGGYFNTDKPHPRGEILIGGQNVTMGYYKNEAKTKADFFEDENGQRWLCTGDIGEFDPDGCLKIIDRKKDLVKLQAGEYVSLGKVEAALKNLPLIDNICAYANSYHSYVIGFVVPNQKELTELARTKGFNGTWEELCNSSEMENEVLKVLSEAAISASLEKFEIPLKIRLSPDPWTPETGLVTDAFKLKRKELKTHYQADIERMYGRK
Km: 48 µM | Vmax: 0.008 µmol/min/mg | Vmax/Km: 3e-05 min⁻¹
